Data on four molecules can be found in article PMC5880214.

Holding throughout (experiment): EMSA
In series [1] the target is T1, AtPOT1a (Arabidopsis thaliana, UniProt Q56Y52 1-467).
T1 sequence: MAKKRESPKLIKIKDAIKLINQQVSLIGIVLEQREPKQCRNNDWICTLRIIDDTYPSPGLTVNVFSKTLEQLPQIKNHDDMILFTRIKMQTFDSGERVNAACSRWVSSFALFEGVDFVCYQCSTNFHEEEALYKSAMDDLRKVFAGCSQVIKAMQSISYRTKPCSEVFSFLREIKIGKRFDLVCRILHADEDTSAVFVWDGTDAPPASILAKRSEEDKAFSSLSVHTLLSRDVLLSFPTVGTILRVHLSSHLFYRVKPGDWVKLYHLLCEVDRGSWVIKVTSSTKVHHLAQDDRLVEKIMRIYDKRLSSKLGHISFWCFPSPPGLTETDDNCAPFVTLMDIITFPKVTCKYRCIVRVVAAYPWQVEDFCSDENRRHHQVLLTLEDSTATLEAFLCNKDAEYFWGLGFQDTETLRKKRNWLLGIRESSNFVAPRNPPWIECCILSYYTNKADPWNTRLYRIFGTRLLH

In series [2] the target is T2, AtPOT1b (Arabidopsis thaliana, UniProt Q6NKX5 1-454).
T2 sequence: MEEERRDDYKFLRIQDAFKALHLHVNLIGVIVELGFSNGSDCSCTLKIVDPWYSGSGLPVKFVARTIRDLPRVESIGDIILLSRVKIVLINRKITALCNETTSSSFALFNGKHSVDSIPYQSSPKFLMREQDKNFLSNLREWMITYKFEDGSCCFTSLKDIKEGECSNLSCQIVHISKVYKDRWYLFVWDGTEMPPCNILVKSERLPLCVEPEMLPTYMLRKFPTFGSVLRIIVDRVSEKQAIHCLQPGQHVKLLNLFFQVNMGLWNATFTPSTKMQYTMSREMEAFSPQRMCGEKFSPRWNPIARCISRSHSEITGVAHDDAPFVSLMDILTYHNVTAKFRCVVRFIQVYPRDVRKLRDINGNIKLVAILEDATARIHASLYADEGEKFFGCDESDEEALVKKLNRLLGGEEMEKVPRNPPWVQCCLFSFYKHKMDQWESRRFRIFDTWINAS

Series [3] concerns the target T3, mPOT1a_N (OB-fold domains of mouse POT1a) (mouse, UniProt Q91WC1 1-299).
T3 sequence: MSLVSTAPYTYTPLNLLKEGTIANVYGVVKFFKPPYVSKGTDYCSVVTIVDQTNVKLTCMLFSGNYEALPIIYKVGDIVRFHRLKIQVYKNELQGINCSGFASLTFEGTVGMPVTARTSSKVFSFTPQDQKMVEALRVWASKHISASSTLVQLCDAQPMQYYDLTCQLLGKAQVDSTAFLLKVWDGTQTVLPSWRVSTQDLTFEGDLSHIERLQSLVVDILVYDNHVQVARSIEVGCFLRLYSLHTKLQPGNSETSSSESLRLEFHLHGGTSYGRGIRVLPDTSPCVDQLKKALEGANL

In series [4] the target is T4, AlPOT1a (Arabidopsis lyrata, UniProt B7T1J1 1-467).
T4 sequence: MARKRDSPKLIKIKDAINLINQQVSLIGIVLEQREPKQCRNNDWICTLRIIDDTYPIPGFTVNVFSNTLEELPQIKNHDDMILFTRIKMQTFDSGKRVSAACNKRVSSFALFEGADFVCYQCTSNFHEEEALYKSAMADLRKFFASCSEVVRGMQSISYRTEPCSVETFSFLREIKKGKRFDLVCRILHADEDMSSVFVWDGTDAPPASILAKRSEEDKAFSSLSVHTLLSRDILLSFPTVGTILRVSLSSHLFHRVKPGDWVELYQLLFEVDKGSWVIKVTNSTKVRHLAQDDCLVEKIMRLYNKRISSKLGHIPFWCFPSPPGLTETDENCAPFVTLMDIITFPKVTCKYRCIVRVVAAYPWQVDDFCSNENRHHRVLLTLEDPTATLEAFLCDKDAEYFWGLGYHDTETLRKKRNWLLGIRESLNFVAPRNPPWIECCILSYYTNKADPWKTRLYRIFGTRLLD

Series [5] concerns the target T5, AtPOT1a_N (Arabidopsis thaliana, UniProt Q56Y52 1-300).
T5 sequence: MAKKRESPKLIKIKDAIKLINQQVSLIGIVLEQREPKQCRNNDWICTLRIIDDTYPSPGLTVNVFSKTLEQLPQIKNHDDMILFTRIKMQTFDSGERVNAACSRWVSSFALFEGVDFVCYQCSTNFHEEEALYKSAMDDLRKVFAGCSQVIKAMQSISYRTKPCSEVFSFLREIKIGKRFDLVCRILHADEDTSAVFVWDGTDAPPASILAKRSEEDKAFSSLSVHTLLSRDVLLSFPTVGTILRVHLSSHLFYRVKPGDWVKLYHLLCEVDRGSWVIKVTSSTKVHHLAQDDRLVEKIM

The target of series [6] is T6, BoPOT1b (Brassica oleracea (cauliflower, …, UniProt B7T1J8 1-450)).
T6 sequence: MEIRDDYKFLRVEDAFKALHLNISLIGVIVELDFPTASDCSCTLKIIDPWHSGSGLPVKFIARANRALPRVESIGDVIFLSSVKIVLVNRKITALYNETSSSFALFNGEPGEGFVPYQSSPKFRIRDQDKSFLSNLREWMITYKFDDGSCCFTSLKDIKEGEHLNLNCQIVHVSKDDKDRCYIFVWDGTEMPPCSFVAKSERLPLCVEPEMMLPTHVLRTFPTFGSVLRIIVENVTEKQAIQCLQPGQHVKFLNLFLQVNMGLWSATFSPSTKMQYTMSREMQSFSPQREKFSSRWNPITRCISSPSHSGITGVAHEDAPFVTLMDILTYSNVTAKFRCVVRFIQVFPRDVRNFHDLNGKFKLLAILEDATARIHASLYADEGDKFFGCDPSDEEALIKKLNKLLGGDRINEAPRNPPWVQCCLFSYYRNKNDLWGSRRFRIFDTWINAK

For series [7], the target named is T7, AtPOT1b_N (Arabidopsis thaliana, UniProt Q6NKX5 1-300).
T7 sequence: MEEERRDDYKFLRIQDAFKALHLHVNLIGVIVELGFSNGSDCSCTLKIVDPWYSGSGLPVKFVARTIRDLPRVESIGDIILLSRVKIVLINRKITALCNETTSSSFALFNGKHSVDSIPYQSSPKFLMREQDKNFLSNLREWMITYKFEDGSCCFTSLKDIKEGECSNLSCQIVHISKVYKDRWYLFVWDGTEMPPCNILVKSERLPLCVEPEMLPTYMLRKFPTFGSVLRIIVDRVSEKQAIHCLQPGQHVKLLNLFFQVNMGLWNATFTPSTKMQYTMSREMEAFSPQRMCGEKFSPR

In series [8] the target is T8, BoPOT1a (Brassica oleracea (cauliflower, …, UniProt B7T1J7 1-456)).
T8 sequence: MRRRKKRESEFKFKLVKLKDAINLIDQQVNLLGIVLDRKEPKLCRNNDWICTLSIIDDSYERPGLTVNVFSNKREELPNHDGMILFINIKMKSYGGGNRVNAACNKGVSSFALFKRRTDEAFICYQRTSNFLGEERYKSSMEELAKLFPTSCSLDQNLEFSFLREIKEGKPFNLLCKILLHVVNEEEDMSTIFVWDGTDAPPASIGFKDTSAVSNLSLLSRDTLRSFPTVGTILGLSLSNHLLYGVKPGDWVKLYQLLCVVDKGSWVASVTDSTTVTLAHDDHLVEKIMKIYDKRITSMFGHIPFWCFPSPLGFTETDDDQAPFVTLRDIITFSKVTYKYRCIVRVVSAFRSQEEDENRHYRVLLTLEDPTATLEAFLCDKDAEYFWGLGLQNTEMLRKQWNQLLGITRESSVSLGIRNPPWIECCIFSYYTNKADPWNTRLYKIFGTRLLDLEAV

Series [9] deals with T9, AlPOT1b (Arabidopsis lyrata, UniProt B7T1J2 1-450).
T9 sequence: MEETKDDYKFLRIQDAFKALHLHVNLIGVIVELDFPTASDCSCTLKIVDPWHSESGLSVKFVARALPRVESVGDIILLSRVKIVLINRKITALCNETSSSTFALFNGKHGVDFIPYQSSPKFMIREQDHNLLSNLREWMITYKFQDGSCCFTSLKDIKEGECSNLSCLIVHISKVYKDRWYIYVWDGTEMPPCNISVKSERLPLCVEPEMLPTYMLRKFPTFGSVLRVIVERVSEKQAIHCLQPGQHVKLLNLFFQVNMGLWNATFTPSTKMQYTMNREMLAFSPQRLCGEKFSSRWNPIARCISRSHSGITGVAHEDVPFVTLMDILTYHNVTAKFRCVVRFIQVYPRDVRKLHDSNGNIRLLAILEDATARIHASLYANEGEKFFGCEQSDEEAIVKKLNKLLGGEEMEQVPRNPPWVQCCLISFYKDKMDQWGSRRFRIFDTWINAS

B1: C-rich plant telomere repeat, five copies (ssDNA)
DNA: CCCTAAACCCTAAACCCTAAACCCTAAACCCTAAA
With B1, the binding result in [1] and in series [2] was “no binding” each time.

B2: (GGTTAG)2 vertebrate telomere repeat (ssDNA)
DNA: GGTTAGGGTTAG
With B2, in series [3], the binding result is given as “binds”.

B3: (TTTAGGG)5 (ssDNA)
DNA: TTTAGGGTTTAGGGTTTAGGGTTTAGGGTTTAGGG
In the case of B3, the binding result in series [4], in series [5], in series [1], in series [6], in [7] and in series [8] was “no binding” each time. The binding result in series [9] and in [2] was “no binding” each time.

B4: (TTTAGGG)2 (ssDNA)
DNA: TTTAGGGTTTAGGG
On to B4, for which the binding result in series [4], in [5], in series [1], in series [6], in series [7] and in [8] was “no binding” throughout. Besides, the binding result in series [9] and in [2] was “no binding” throughout.
